One substance from patent EP1141254B1 can be followed below.

Assay in all cases: cell-based or functional assay
For experiment [1], the target named is 980903 (XM1): purified mutant of Bacillus sub. wild type xylanase expressed in E. coli.
Experiment [2] concerns the target 980603 (Röhm): purified preparation of Frimond's Belase xylanase (identical to Röhm's) (Bacillus subtilis).
In experiment [3] the target is 980601 (BX): purified preparation of Danisco's new bacterial xylanase expressed in E. coli (Bacillus subtilis) (UniProt P18429).

endogenous endo-β-1,4-xylanase inhibitor from wheat flour, sequence (main, form in doubt): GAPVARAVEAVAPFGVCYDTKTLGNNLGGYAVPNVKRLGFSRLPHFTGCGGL
endogenous endo-β-1,4-xylanase inhibitor from wheat flour, sequence (main, form in doubt): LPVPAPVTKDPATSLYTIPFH

“endogenous endo-β-1,4-xylanase inhibitor from wheat flour” showed a residual activity of XM1 after incubation with flour extract, relative to that of XM2 in experiment [1] of 2.5 fold. In experiment [2], this substance came in with an Inhibition, % (inhibitor extracted from flour 98002) of 60.8%; an Inhibition, % (inhibitor extracted from flour 98026) of 61.3%; a Rest act., % (average of flours 98002 and 98026) of 39%; a Rest act., % (inhibitor extracted from flour 98002) of 39.2%. Moreover, the Rest act., % (inhibitor extracted from flour 98026) in experiment [2] was determined as 38.7%. In addition, in experiment [3], the Inhibition, % (inhibitor extracted from flour 98002) came out at 67%; the Inhibition, % (inhibitor extracted from flour 98026) turned out to be 75%; the OD 590 in the inhibitor assay with inhibitor extract from flour 98026 (without inhibitor: 0.675) was 0.165 OD 590; the Residual activity, % (inhibitor extract from flour 98026) amounted to 24.4%. In experiment [3], the Rest act., % (average of flours 98002 and 98026) was 29%; the Rest act., % (inhibitor extracted from flour 98002) amounted to 33%; the Rest act., % (inhibitor extracted from flour 98026) came to 25%; the Vmax from the Lineweaver-Burk plot of xylanase 980601 with and without inhibitor (relative OD 590) (relative OD 590) came to 1.19.
